From the DeepSol protein solubility set

Experiment: soluble on expression in E. coli; label from the status in PepcDB or PDB records

Row | Sequence | soluble on expression in E. coli
1 | MSLIKMIALDLDETLLNTDKTISEENATALRQLHEAGIKIVLCTGRPINAIWHYLEQLGLTTDDDYTITFNGALVIQNSTKEALAQSGLSRNDFEPLHAFAAANHYPMDVLDFDQVYPIADLTPSVYEQMLKAPMKFIPTAFADLPDQLFSKAVMATDAAILDQVVAKLTPELTKLYHVVRSQPKILEFLAADMDKAVGLGQLLTHFGWDFSDLMAFGDAENDLGMIKAAGDGVAMQNGQPAVKAAANHQTPVDNNHAGVAAYLQHVFPELLGEGHHHHHH | soluble
2 | AFTCHCRRSCYSTEYSYGTCTVMGINHRFCCL | soluble
3 | EEALIKIKQQEIVKNLPANAALVQLKYAGKTTDEPILNNLYKKYQVTANILYGNIEILEKTPVGEMIVILEGAATNIDQALNDLTHSDLTVTVLKRGV | not soluble
4 | MGSDKIHHHHHHMLKQLILENWKSFRYAELPLDPLTVLIGTNASGKSNVVEALEFLQRIARGENVEAALAGDKTLVSIRGGVEWAARKQETGFTLQTLIQGEDETQDYLYTVQIQTIPEVRVIQEQITFENINQDNVVYNKKHLTVKNPIFPTKSGLENLELHVDINDLMQFFPPDQNILLGDKDFLETLNNVLLPFRNKACKFVVASLKNIFILNPIASNMRNYSRLADDLESDASNIAGVLAALPDDLKLEIELTLSTYIKDLPEGDIKKVWAEKVGRFGTDAMLYCQEEWKPGHSTDIDARSMSDGTLRFLAILTALLTRPEGSQIVIEEIDNGLHPSRAKLLVKILREIGSKRNIDILLTTHNPALLDALGPDTVPFVVVAHRDAETGESKLTLLENIDNFSKLFASYSLGEMTTKGAIERSLSHSE | not soluble
5 | MGSDKIHHHHHHMIVERVEEYLDRIEKINKDINALIEVKPEKVLEEAKKLEKDEKAKKKPLYGKIIVVKANINVEGYTISCASKTLENYIAPYDATVIEKIKENGGLIIGIANMDEFACGSSGETSYFGPTKNPRAKDRIPGGSSSGSAAAVSADLCDMALGSDTGGSIRNPASHCGVVGFKPSYGVVSRYGLCDLAMSFDQIGPLTKTAEDALLLTNIIKGKDLRDTTTVETKPFEKKDIKGFKVGVVKEFMDVADEKIRDKVEKAIEVFKDLGCEIVELSYKYVDLALPTYYLINYVEFFSSTRRYDGRRYGYKIEEVCGEEVLRRIMIGSMISQKEYSGKYYKNALKARNLMRNEMIKIMKDVDIIVGATVPKLPHKLGEKLTPMEMYSYDVLTVPANICGLCAGVVPCGDINGIPVGLQIQGKPFEDEKVLSAMIAFEKAME | not soluble
6 | MGSDKIHHHHHHMKNNFLVNFILLHGYSLDNSSLMFGKMGYSLILFEYSHYFKDALAEKHAFELLQEVLASPMKSNTFNEGKMGIAWSLIHLIEKEYIEADYLELYGQEHKEIVAFIKQLKTDMNNIVSKNDAISFLIASKSYIQESDFDEILPNLIENLYDYLKQIPKSLFERNLFYYHATKMLCLYNLYEELSIRGETLIDIIVQTHKKLISDKHVCTNISFGVNLLQYGLCHKRKDIIKLANAIIKCYFSNMVLETLNLKESIDAIYNLNKLQLLNKESEWTSLKKQLSSLLFNKESYLYKENRLTLSRLKGGIPQLLLMECLNFQDIKSTGHYIMLK | not soluble
7 | MRRARIQIKPNISKAAKQEPPPEPAPVVEETLPQAPVVAEPRILENVETMTNQVSLTVASESMKSLHVDTSKNHHVHFTDDVIDNEQNRIQETPDIVMISPTSQQNAQFASPNPPARLTPRSRNVSMCEDEAILQPKQPRDKKRFSGREELDTKTWKMSDLTRWNPKNEMTRFKRERRSSTSSSVITKSEIGDLDAPPAPRINAPQVKIGADGRLVIDETSLVVHSAQINHESVWETVEEGRMGAKITSMSFRKRGFGKSSFWSEKETDLFYEVLQCTGQDFGLMSHYLPKRTRPELKAKYNREEKINWARVLNAISHPVRLDGNLEVRISKLMTEMEEEAQEKKAKGEYEKAEEKRIREQNRLQKATERNQAKELVKQAKELERDARNAAKLNMKADKEARAQEKSETRQLEKTALKEARLMATEAKRIAMEARAIIKESRKLEKSKKADSVQSDSHNLEREAERIIRRLLQESQREDRRTAHFNKNDKPAAPKSTEEATTSEVSAPTKSPAPVVVTIDASEGELGDTSTDAADSSSASSSDDDALRKDAARREKQRMKEARRNLKPRKTVADKKPVYVDTTDPKYAQQKVSRAVEMVLKANGNMFDSAGEQDDDFPDPDEMETSAEPVVVEEVAPDPTPPPPENMEENVVEESVPQSVIDVVEEIMRGRSKTPVETAVKPLENTEESKTDGEDRKKRSADVDSGGPSPKVARLEGVDVPVEDSTEVATSSTVTSSSAPSSSSSTTVAPAIKPSTAPKPAIASARRTVKKPNTWSKKK | not soluble
8 | MNQIAIQETIQRLINQQVVPGVAWGTITEDSLSEQYTGFLGNTGPFARQKISSASLYDLASLTKVIGTTNRMLQLIDTNQLTFSTTVGEILPDYQGLSCSIGELLLHQSGLPADVVDKKNVTKKSLQEIILTHSLSERGKTTYSDLGYYLLGEIIQVLDRCSLEESFQTYVFQPMNLQHTSFTVSDFAQAVPTEITKQRGVIQGVVHDSKAYQLKAPIGSAGLFATLPDLLTFVQCFMNNRYPSGKPLFSEKMFTALWSMNQGGRTFGWEVKKTQAGADYLYHTGFTGTAIGMKKETKEALILLTNRIHPTREERGFLKARTKIYQQYF | not soluble
9 | MTDLSRSQFGFRKARSTVDVVNIVVKVAAQAIEGIMVTLDIRNVFNTARWDRIIKALIGFGELAYLVRIIRSYFSKRVLLCESSEGVFSPQVTGGVPKGSVLGQLLWNAMKTGYFAYHWLRGTNRRLRGRRGFARCLEHHHHHH | not soluble
10 | MRGSHHHHHHGSATSANTDRIATAELGIAENKKDAQIAKAQANENKDGIAKNQADIQLHDKKITNLGILHSMVARAVGNNTQGVATNKADIAKNQADIANNIKNIYELAQQQDQHSSDIKTLAKVSAANTDRIAKNKAEADASFETLTKNQKLCSQA | soluble
11 | MNVRITKKMVRELLEVLDEIVEEIRQEEKEKYPYAEWERKREIVKERLRKLPKYVREAVSAIRIEKRVGRPKKVDLEKRVMLFLFARLINKSNRDVEELLELFEPLFGIRVSYKTIERLYSDEEVRMALHNLFILLLKDEGVSGEFSGDGTGYSLAITKHYRSNPKKKGKDFRYVFRIIDLETGMYVGFGYSAKSEKDAFEKAMKMLKSMGVKVNSISLDKYYSTRKTLRMFDAETSVYVIPKRNLSRIGFDWLRVIERIVEMPYRFLKRYFKRNLSEAGFSADKRRFGWLIRQRREDRREMALFAVGLWHNIFAVRVMR | not soluble
12 | MPFIECHIATGLSVARKQQLIRDVIDVTNKSIGSDPKIINVLLVEHAEANMSISGRIHGEAASTERTPAVS | soluble
13 | GDQPVINFGIISTESSQNLKSIWEPFLKDMSQQTGYQVKAFFAPDYAGIIQGMRFDKVDIAWYGNKAAMEAVDRAHGEIFAQTVAASGAPGYWSLLIANKDSKIDSLEDMLANAKSLTFGNGDPNSTSGYLVPGYYVFAKNNVDPVKAFKRTLNSSHEVNALAVANKQVDVATFNTEGMERLELTQPEKARQLKVIWKSPLIPGDPLVWRNNLSDEQKNKLRDFFFKYGANAEQKKVLADLQWSKFQASDDDQLLPIRQLELFKQRTDVANNANLGAEEKAAKLKALDEELAKLEKRMAEREQKTAANAG | soluble
14 | MDKKSKLINLLKEVGCIRFGEFILASGKKSNYYIDIKKATTNPEILKLVGEIIAEQIKDEDVKVAGVELGSVPIATAVSIIAQKPLLIVRKKPKDYGTKNKIEGELKEGDKVVIVEDVTTTGGSVLKAVKEIRENGGIVDKVFVVVDRLEGAKENLQKENVELIPLVTVKELQSTQ | soluble
15 | AAKHHFDEIHYLDIVDCNGGDHHKAFATNFNPEINIREITQKGKYWENGRWIETEPQEIHKTLTYPSIGERESYLLYHEELESLVKNFPTIKRARFWMTFGQEYLTHLRVMQNIGMTRIDPIMYNGVEIVPIQFLKAVLPNPGDLGENYTGETSIGCRIRGIRDGKERTYYIWNNCSHEVAYKETGTQG | not soluble
